Measurements taken from patent publication US7943319B2, “Utility of RET mutant in diagnosis and treatment of melanoma” (John Wayne Cancer Institute, priority 2007, dated 2011).
Entries after “also recorded” stand apart in the source; their conditions may differ.

Tests used:
RET = RET (Homo sapiens, UniProt P07949); conditions: cited from earlier work
RETmt thyroid cancers = conditions: cited from earlier work
[1] = target: RET G691S mutant (RETmt), endogenous on melanoma cells (human) (UniProt P07949); assay: cell-based or functional assay
ME7 cells (RETmt/BRAFwt) = assay: Blocking assay of GDNF-induced proliferation; assay type: cell-based, human; conditions: pre-treated 60 min with 10 μM PD98059 or 100 nM wortmannin, then 25 ng/ml GDNF for 72 hrs
Experimental: (§1) Cell proliferation 48 and 72 hrs after GDNF treatment (5, 25 or 50 ng/ml, dissolved in water) in serum-free medium was analyzed by 3-(4,5-dimethylthiazol-2-yl)-2,5-diphenyltetrazolium bromide (MTT) and direct cell counting with a light microscope, respectively. MTT (0.4 mg/ml, Sigma-Aldrich, St. Louis, Mo.) was added into culture wells after washing with PBS. The converted dye was dissolved with DMSO 2 hrs after incubation at 37° C. and the absorbance was measured at a wavelength of 550 nm with a microplate reader (Bio-Rad). For cell counting, cells were harvested after washing with PBS and the number of cells was counted using a hemocytometer under a microscope. In blocking assays, cells were pre-treated with 10 μM of a MEK1 inhibitor, PD98059 (Cell Signaling Technology), or 100 nM of a PI3K inhibitor, wortmannin (Cell Signaling Technology), for 60 min before treatment of GDNF as indicated in the instructions from the company, and followed by 25 ng/ml of GDNF treatment for 72 hrs. To avoid the effect of the delivery agent on cells, PD98059 and wortmannin were dissolved in PBS, and the same amount of PBS was added to control (GDNF(−)) and GDNF-treated cells.

[2] = test system: melanoma cells (RETmt and RETwt); assay: Cell proliferation by GDNF (MTT assay); assay type: cell-based, human; conditions: 48-hr exposure to GDNF, serum-free medium
Experimental: as §1

[3] = test system: melanoma cells (RETmt and RETwt); assay: Migration assay (Transwell chamber) with GDNF; assay type: cell-based, human; conditions: RETmt cells compared with RETwt cells; 5 or 25 ng/ml GDNF, 48 hrs
Experimental: Migration ability of the melanoma cells was determined with a modified technique using a Transwell® chamber with a microporous membrane (membrane diameter 6.5 mm, pore size 8 μm, CORNING, Corning, N.Y.) (29). Melanoma cells were seeded in the upper chamber with RPMI 1640 culture medium (Invitrogen) with 2% fetal bovine serum (FBS). The lower chamber contained RPMI 1640 culture medium with 2% FBS and 5 or 25 ng/ml of GDNF. The cells that migrated through the membrane and adhered to the bottom of lower chamber were fixed with 80% ethanol and stained with hematoxylin 48 hrs after incubation at 37° C. The number of stained cells was counted in a total of 5 fields under a microscope with 200× magnification. In blocking assays, cells were pre-treated with wortmannin (100 nM) for 60 min before treatment of GDNF as indicated in the instructions from the company and followed by treatment with 25 ng/ml GDNF for 48 hrs. To avoid the effect of the delivery agent on cells, wortmannin was dissolved in PBS, and the same amount of PBS was added to control (GDNF(−)) and GDNF-treated cells.

[4] = test system: melanoma cells (ME1, ME7, ME3); assay: Actin polymers staining by Alexa Fluor 568 phalloidin; assay type: cell-based, human; conditions: 10 ng/ml GDNF, 48 hrs
Experimental: Melanoma cells were seeded in BD BioCoat™ CultureSlides (BD Biosciences, San Jose, Calif.). Cells were washed twice with PBS and fixed with 3.7% formaldehyde solution in PBS for 10 min at room temperature after a 48 hr incubation with GDNF (10 ng/ml) at 37° C. Fixed cells were stained with 1 U/200 μl of PBS Alexa Fluor® 568 phalloidin (Invitrogen) for 20 min at room temperature. After washing twice with PBS, actin polymers were observed using fluorescence microscopy with 400× magnification.

Akt = assay: Western blotting of phosphorylated Akt after GDNF; assay type: cell-based, human; conditions: 25 ng/ml GDNF
Experimental: (§2) Cells were washed twice with ice-cold phosphate-buffered saline (PBS) and dissolved in solubilizing buffer (pH 7.5, 20 mM Tris-HCL, 12.5 mM β-glycerophosphate, 2 mM EGTA, 10 mM NaF, 1 mM benzamide, 1% NP-40, 1 mM Na3VO4, 1× protease inhibitor mix) after treatment with 25 μg human recombinant GDNF (Chemicon International, Temecula, Calif.). Each aliquot of protein (10 μg) was subjected to Western blotting analysis. After electrophoresis on 12.5% polyacrylamide gels, the protein was transblotted to Hybond™-P (Amersham Life Sciences, Inc., Arlington Heights, Ill.) in transfer buffer (192 mM glycine, 25 mM Tris, 2.5 mM SDS, and 10% methanol). The blots were blocked with 5% non-fat dry milk, and then incubated with anti-ERK 1/2 rabbit polyclonal Ab, or anti-phosphorylated ERK 1/2 rabbit polyclonal Ab (1:1000, Phosphoplus® p44/42 MAP Kinase (Thr202/Tyr204) Antibody kit, Cell Signaling Technology, Danvers, Mass.), and then incubated with an horse radish peroxidase (HRP)-conjugated anti-rabbit IgG Ab (1:2000, Cell Signaling Technology). As for Western blotting of Akt, anti-Akt rabbit polyclonal Ab, or anti-phosphorylated Akt rabbit polyclonal Ab (1:500, Phosphoplus® Akt (Ser473) Antibody Kit, Cell Signaling Technology) and a secondary Ab, HRP-conjugated anti-rabbit IgG Ab (1:1000), were used. Subsequently, the blots were developed with ECL Plus Western blotting Detection system (GE Healthcare Life Sciences, Piscataway, N.J.) according to the manufacturer instructions.

ERK1/2 = assay: Western blotting of phosphorylated ERK1/2 after GDNF; assay type: cell-based, human; conditions: 25 ng/ml GDNF
Experimental: as §2

[5] = test system: melanoma cells (RETmt and RETwt); assay: QCM Collagen-based Invasion Assay with GDNF; assay type: cell-based, human; conditions: RETmt cells compared with RETwt cells; 25 ng/ml GDNF, 60 hrs
Experimental: Invasion ability of the melanoma cells was analyzed using QCM™ Collagen-based Invasion Assay MILLIPORE, Billerica, Mass.), as described in previous reports (27, 29). Cells were seeded in the upper chamber with RPMI 1640 culture medium (Invitrogen) with 2% FBS containing GDNF. The lower chamber contained RPMI 1640 culture medium with 5% FBS and GDNF with same concentration as the upper chamber (25 ng/ml). Cells invading the collagen-coated membrane were fixed and stained 60 hrs after incubation at 37° C. using reagents provided by MILLIPORE, according to the manufacturer's instructions. Stained cells were dissolved with a provided reagent and measured at a 550 nm wavelength with a microplate reader (Bio-Rad). In the blocking assay, cells were pre-treated with 1 μg/ml of a goat anti-human polyclonal RET-specific Ab, which binds to the extracellular domain of RET (R&D Systems), or 1 μg/ml control goat IgG (Santa Cruz Biotechnology) as a control 60 min before treatment with GDNF and followed by treatment with 25 ng/ml GDNF for 60 hrs.

Chain of RET (P07949 29-1114): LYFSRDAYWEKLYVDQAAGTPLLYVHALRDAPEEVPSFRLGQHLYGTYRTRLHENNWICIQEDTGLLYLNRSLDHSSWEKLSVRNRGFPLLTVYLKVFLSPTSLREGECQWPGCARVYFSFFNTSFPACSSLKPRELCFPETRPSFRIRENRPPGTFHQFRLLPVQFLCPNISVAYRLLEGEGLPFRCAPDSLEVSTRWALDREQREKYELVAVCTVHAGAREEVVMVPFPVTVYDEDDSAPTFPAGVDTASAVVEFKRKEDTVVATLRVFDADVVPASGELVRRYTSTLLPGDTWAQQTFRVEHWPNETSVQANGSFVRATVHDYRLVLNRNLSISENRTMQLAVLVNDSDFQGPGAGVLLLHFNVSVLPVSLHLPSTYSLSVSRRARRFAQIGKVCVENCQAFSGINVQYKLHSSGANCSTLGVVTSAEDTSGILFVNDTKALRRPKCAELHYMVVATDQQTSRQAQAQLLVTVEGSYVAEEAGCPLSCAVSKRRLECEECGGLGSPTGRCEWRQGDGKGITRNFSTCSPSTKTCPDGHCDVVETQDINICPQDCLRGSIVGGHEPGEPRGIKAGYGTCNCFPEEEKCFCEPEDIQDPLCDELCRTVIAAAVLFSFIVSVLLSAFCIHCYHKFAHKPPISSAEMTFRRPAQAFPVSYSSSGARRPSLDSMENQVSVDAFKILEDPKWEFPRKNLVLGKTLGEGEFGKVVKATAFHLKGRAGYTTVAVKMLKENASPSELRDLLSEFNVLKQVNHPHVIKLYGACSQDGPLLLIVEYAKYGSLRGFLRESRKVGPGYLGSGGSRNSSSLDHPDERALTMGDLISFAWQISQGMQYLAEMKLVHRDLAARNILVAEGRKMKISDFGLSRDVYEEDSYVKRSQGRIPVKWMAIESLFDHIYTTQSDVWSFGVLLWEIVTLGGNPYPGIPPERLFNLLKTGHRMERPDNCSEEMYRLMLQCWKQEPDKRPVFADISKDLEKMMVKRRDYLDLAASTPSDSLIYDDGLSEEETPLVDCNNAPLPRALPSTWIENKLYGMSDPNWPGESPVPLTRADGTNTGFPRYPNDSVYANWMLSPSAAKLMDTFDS
Chain of RET G691S mutant (RETmt), endogenous on melanoma cells (human) (P07949 29-1114 G691S): as the sequence (P07949 29-1114) above, with G663S counted along it

CNC(=O)c1cc(Oc2ccc(NC(=O)Nc3ccc(Cl)c(C(F)(F)F)c3)cc2)ccn1 [Sorafenib]
RET signaling (RET): can block | kinase activity of RET (RET): directly suppresses | lysosomal degradation of RET protein (RET): promotes | growth of RETmt thyroid cancers (RETmt thyroid cancers): suppress growth

human recombinant GDNF (glial cell line-derived neurotrophic factor) (from UniProt P39905 78-211) (ligand)
suppression by RET siRNA of GDNF-induced cell proliferation in ME1 (MTT assay) [1]: > 80%

COc1cccc(-c2cc(=O)c3ccccc3o2)c1N [PD98059]
suppression of GDNF-induced proliferation (ME7 cells (RETmt/BRAFwt)): significantly blocked; also recorded: completely suppressed

B1: GDNF: human recombinant GDNF (Chemicon International), major ligand of RET (protein)
chain: SPDKQMAVLPRRERNRQAAAANPENSRGKGRRGQRGKNRGCVLTAIHLNVTDLGLGYETKEELIFRYCSGSCDAAETTYDKILKNLSRNRRLVSDKVGQACCRPIAFDDDLSFLDDNLVYHILRKHSAKRCGCI
cell proliferation on GDNF exposure ([2]; RETmt melanoma cells): enhanced proliferation | cell proliferation on GDNF exposure ([2]; RETwt melanoma cells): but not RETwt melanoma cells | migration after GDNF stimulation [3]: more vigorous | actin polymerization (filopodia) ([4]; RETmt cell lines ME1, ME7): induced intensely; also recorded: induced filopodia | actin polymerization (filopodia) ([4]; RETwt cell line ME3): no actin polymerization induced | phosphorylation of Akt (Akt; ME1 (RETmt/BRAFmt), ME5 (RETmt/BRAFwt)): strongly phosphorylated | duration of phosphorylation of Akt (Akt; ME1, ME5): 60 min | time to strong phosphorylation of Akt after treatment (Akt; ME1, ME5): ≤ 15 min | phosphorylation of Akt (Akt; ME3 (RETwt/BRAFwt)): weak phosphorylation | phosphorylation of ERK1/2 (ERK1/2; ME1 (RETmt/BRAFmt), ME7 (RETmt/BRAFwt)): more intense phosphorylation; also recorded: strongly phosphorylated | duration of phosphorylation of ERK1/2 (ERK1/2; ME1, ME7): 60 min | time to strong phosphorylation of ERK1/2 after treatment (ERK1/2; ME1, ME7): ≤ 15 min | phosphorylation of ERK1/2 (ERK1/2; ME3 (RETwt/BRAFwt)): weak phosphorylation | invasion after GDNF stimulation [5]: more vigorous
